Assay results reported in patent publication US20190175515A1, “CHOLESTERYL ESTER VESICLES LOADING PEPTIDES, PROTEINS AND NUCLEIC ACIDS INTO CHYLOMICRONS AND BODY CELLS” (priority 2016, published 2019).
Residues, ends and D or L forms follow the SMILES beside them. *: point of attachment. Cbz = O=C(OCc1ccccc1)*

Columns and labels:
[1] = test system: Caco-2 cells
Experimental: Caco-2 intestinal epithelial cells were gown in Dulbecco's Modified Eagle's Media (DMEM) supplemented with 20% fetal bovine serum (heat inactivated), 1 nM sodium pyruvate, 100 U/ml penicillin, 100 μg/ml streptomycin, 292 μg/ml L-Glutamine and 1× MEM non-essential amino acids (Invitrogen, #11140). Cells were cultured in 75 cm^2 flasks and incubated in a 37° C. and 5% CO2 environment until 80-90% confluent. The Biocoat HTS Caco-2 assay system (Becton Dickson, #0354802) was used for transport studies. Cells were seeded at a density of 3×10^5 cells/well and differentiated into enterocyte-like cells using, the manufacturer's protocol. This system used a special fibrillar collagen insert and a serum free differentiation medium enhanced with butyric acid, hormones, growth factors and metabolites to establish a differentiated monolayer in 3 days instead of the 21 days that is normally required for this process. This involved incubation of the cells with a DMEM based media containing 10% FBS for 48 hours at 37° C., 5% CO2 after seeding to establish a growth phase. The media was then replaced by the defined differentiation media and incubated for another 48 hours. At this point the Caco-2 cells are ready for further studies.
The differentiated Caco-2 cells were used for the production of Chylomicrons using the method of Luchoomun and Hussain-1999 (21). This method uses supplementation with oleic acid (OA) and taurocholate (TC) at a 1.6:1.0 mM ratio to achieve chylomicrons production. The OA:TC solution was made up in the DMEM based cell growth media used in the BIOCOAT differentiation protocol by adding OA to a 10 mM TC solution and incubated at 37° C. until clear. This was then 0.2 u filtered and used immediately for the transport studies. Treatments plus OA:TC were added in a 450 ul volume to the apical side of the well and incubated for 24 hours for transport studies and chylomicrons production. PBS plus lingind glucose was added in a 1ml volume to the basolateral side. […]

[2] = rats, chitosan nanoparticles; cited from earlier work
[3] = Eligen proteinaceous coating and SNAC; cited from earlier work
[4] = type: in vivo; conditions: rats
Experimental: These experiments were conducted to evaluate the comparative plasma and tissue to plasma ratios of insulin between a cholesterol-encapsulated insulin formulation (cholestosome-insulin) administered by oral gavage and by subcutaneous injection, both compared with the same insulin administered subcutaneously (s.c.) In healthy female Wistar rats.
This study was designed for comparison of insulin bioavailability from the formulations administered, which is defined by the Area under the curve (AUC) calculated as the ratio of Oral to […] over 24 hours following the dosing of the formulation,
Sixteen healthy female Wistar rats ranging from 246.5 to 292.8 g in body weight were distributed into three study groups. Two 6-rat cohorts were dosed with cholestosome insulin oral and SC injection and the remaining 4 rats were given subcutaneous regular insulin as controls. Each rat was dosed with 1.0 ml/animal of a solution identified by Sponsor with cage number and rat number only. Two groups of female Wistar rats were fasted, ranging in duration from 3 hr prior—to 1 hr post-dosing. Rats had free access to water at all times. […] Rats were monitored daily for mortality and morbidity, including signs of hypoglycemia. […]
Results. […] All AUG values were corrected for actual dose given (subtracting residual returned) and expressed as AUG to a dose of 0.25 units, which was approximately 1 unit/kg of body weight. […]

[5] = Temperature stability of insulin; type: physicochemical
Experimental: Once there is the addition of the aqueous molecule or construct, the mixture is sonicated until there is a cloudy solution formed, thereby minimizing waste from un-dissolved esters, with sonication providing energy for unilamellar vesicle formation. The aqueous component is also maintained at the target temperature prior to its addition, and as stated previously for most peptides, proteins and genes, the highest temperature that can be tolerated is only about 45-50° C.
On the basis of these finding and considering the stability of the proteins and peptides being formulated, including insulin by way of example, the operating temperature of encapsulation procedures was kept,between 40 and 55 degrees centigrade. […] By way of example, optimal insulin preparation was at 37-55 degrees centigrade.

[6] = Insulin solubility and integrity versus pH (HPLC); type: physicochemical
Experimental: Many preparations of cholestosome insulin have been made. […] Accordingly, the solubility limits of Insulin were empirically tested at pH 3.5, 6, 7 and 8. Data on the […] of each formulation are plotted by pH of the insulin solution are plotted at two different ionic strengths of PBS buffer in FIG. 9.
The maximum concentration at each tested pH was applied to the following: Stock solutions for each pH and ionic strength combination are prepared. The empirically determined maximum concentration of Human Recombinant Insulin (SAFC Biosciences and. ProSpec) was added to the stock solution. These stock solutions were then readjusted to the desired pH using either 1M HCl or 1M NaOH as needed 5.0 ml of stock solution was heated to 55° C. and used as the aqueous component in preparations.

[7] = test system: MCF-7 cells; experiment: Pilot study of MG-132 on MCF-7 cells exposed to 1117 insulin-cholestosomes; type: cell-based, human
Experimental: A pilot study was performed whereby […] to MCF -7 cells that were also exposed to 1117 insulin-cholestosomes.

[8] = test system: MCF-7 cells; experiment: FITC cholestosome (myristate/palmitate) uptake in MCF-7 cells, fluorescent imaging; type: cell-based, human
Experimental: In this experiment, 22 ug of FITC formulation was placed on MCF-7 cells, Fluorescent imaging was performed over time, with images taken at 2, 4, 8 and 24 hours.

[9] = test system: melanoma; conditions: patients with melanoma; cited from earlier work

acid protected insulin: insulin protected from acid but not cholestosome encapsulated, Caco-2 control
insulin passing the apical Caco-2 barrier ([1]; Caco-2): < 5%

Aspart Insulin
oral bioavailability of insulin [2]: 17%

semaglutide: a GLP-1 agonist under development by Novo Nordisk
oral bioavailability [3]: 2.5%

Insulin: Human Recombinant Insulin made in bacteria
signs of drug toxicity or severe hypoglycemia [4]: No signs of drug toxicity or severe hypoglycemia
tolerability ([4]; oral and SC (cholestosome), SC (regular insulin)): well tolerated
oral bioavailability of insulin [2]: 17-20%
stability across operating temperature range ([5]; between 40 and 55 degrees centigrade): stable
temperature up to which insulin remains stable ([5]; under certain conditions): up to 55 °C
Insulin solubility ([6]; pH 8.0): high
integrity of insulin by HPLC analysis ([6]; pH (8) environment): breaks down the insulin A/B Dimer

FITC-insulin: FITC labeled regular insulin purchased commercially, unencapsulated
FITC signal found in the Caco-2 cells ([1]; Caco-2): about 1%
FITC signal remaining on the apical side ([1]; human, Caco-2, 24 h): ~100%

CC(C)C[C@@H](C=O)NC(=O)[C@H](CC(C)C)NC(=O)[C@H](CC(C)C)NC(=O)OCc1ccccc1 [MG-132] (Cbz-Leu-Leu-Leu-aldehyde)
effect on exocytosis of insulin-cholestosomes [7]: caused the likely exocytosis of more intact insulin-cholestosomes

Fluorescein Isothiocyanate [FITC]
uptake / fluorescence, encapsulated FITC and FITC alone [8]: uptake of FITC itself into MCF-7 cells

ipilimumab: CTLA-4 antibody
overall tumor response (OR) rate [9]: 11%
